Measured values from paper PMC8130932 (PLoS Pathogens, 2021).

Legend:
[1] = biological target: T1, SARS-CoV-2 spike glycoprotein S1+S2 extracellular domain (SARS-CoV-2, reference sequence, UniProt P0DTC2); experiment: ELISA
T1 construct: also called full-length spike glycoprotein ectodomain

[2] = biological target: T2, SARS-CoV-2 spike glycoprotein, full-length, prefusion-stabilised, on MDCK-SIAT1 cells (SARS-CoV-2, reference sequence, UniProt P0DTC2, 986KV987 to 986PP987 | 682RRAR685 to 682GSAG685); experiment: flow cytometry on cells; conditions: one partner purified
T2 construct: also called MDCK-Spike

Binder | OD450 [1] | binding result [2]
EZ 7A (antibody, V domains shown, source: HEK293T, transfected; culture supernatant or purified) VH: EVQLVESGAEVKKPGESLKISCKGSGYSFTSYWIGWVRQMPGKGLEWMGIIYPGDSDTRYSPSFQGQVTISADKSISTAYLQWSSLKASDTAMYYCARGWVYRGFPYYGMDVWGQGTMVTVSS VL: QSALTQPRSVSGSPGQSVTISCTGTSSDVGGYNYVSWYQQHPGKAPKLMIYDVSKRPSGVPDRFSGSKSGNTASLTISGLQAEDEADYYCCSYAGSYTLVFGGGTKLTVL | 1.66 OD450 | binds
FM 7B (antibody, V domains shown, source: HEK293T, transfected; culture supernatant or purified) VH: EVQLVQSGAEVKKPGASVKVSCKASGYTFTSYAMHWVRQAPGQRLEWMGWINTGNGNTKYSQKFQGRVTITRDTSASTAYMELSSLRSEDTAVYYCARDPTYCSSTSCYPFSWFDPWGQGTLVTVSS VL: NFMLTQPPSVSVAPGQTARITCGGNNIGSKSVHWYQQKPGQAPVLVVYDDSDRPSGIPERFSGSNSGNTATLTISRVEAGDEADYYCQVWDSTGDHSWVFGGGTKLTVL | 1.8 OD450 | binds
FI 4A (antibody, V domains shown, source: HEK293T, transfected; culture supernatant or purified) VH: EVQLVESGGGLVKPGGSLRLSCAASGFTFSRFSMNWVRQAPGKGLEWVSSISSSGSYIYFADSVKGRFTISRDNAKNSLYLQMNSLRAEDTAIYYCATYLFGDSHTYWGQGTLVTVSS VL: QSVLTQPHSVSESPGKTVTISCTGSSGSIASNYVQWYQQRPGSAPTTVIYEDNQRPSGVPDRFSGSIDSSSNSASLTISGLKTEDEADYYCQSYDSSNLHWVFGGGTKLTVL | 1.68 OD450 | binds
FB 1E (antibody, V domains shown, source: HEK293T, transfected; culture supernatant or purified) VH: EVQLVESGAEVKKPGESLKISCQGSGYRFNSYWIAWVRQMPGKGLEWMGSIFPTDSDIRYNPSFQGQVTISADKSISIAYLQWSSLKASDTAIYYCARHWASMVRGVIRASHYYGMDVWGQGTTVTVSS VL: QSVLTQPPSASGSPGQSVTISCSGASSDIGDYNYVSWYQQLPGKAPKLLIYEVTKRPSGVPDRFSGSKSGNTASLTVSGLQADDEADYYCSSYAFGGSDIRVFGGGTKLAVL | 1.4 OD450 | binds
FB 9D (antibody, V domains shown, source: HEK293T, transfected; culture supernatant or purified) VH: QVQLVESGAEVKKPGESLKISCQGSGYRFNSYWIAWVRQMPGKGLEWMGSIFPTDSDVRYNPSFQGQVTISADKSISFAYLQWSSLKASDTAIYYCARHWASMVRGVIRASHYYGMDVWGQGTTVTVSS VL: QPVLTQPPSASGSPGQSVTISCSGASSDIGKYNYVSWYQQLPGKAPKLLIYEVTKRPSGVPDRFSGSKSGNTASLTVSGLQADDEADYYCSSYAFGGSDTRVFGGGTKLTVL | 1.43 OD450 | binds
FN 2C (antibody, V domains shown, source: HEK293T, transfected; culture supernatant or purified) VH: EVQLLESGGGVVQPGRSLRLSCAASGFNFNNYGMHWVRQAPGKGLEWVATISYEGSKKFYVDSVKGRFTISKDNSKNTLYLQMNSLRVDDTAFYYCAKRREIFWLGEPPLSDAFDFWGQGTMVTVSS VL: QSVLTQPPSVSGAPGQRVTISCTGSGSNIGAGYDVHWYQFLPGTAPQLLIYGNNNRPSGVPDRFSGSKSGTSASLAITGLQAEDEADYYCQSYDSSLSGSVFGGGTKLTVL | 1.77 OD450 | binds
EY 6A (antibody, V domains shown, source: HEK293T, transfected; culture supernatant or purified) VH: EVQLVESGGGVVQPGRSLRLSCAASAFTFSSYDMHWVRQAPGKGLEWVAVISYDGSNKYYADSVKGRFTISRDNSKNTLYLQMNSLRAEDTAVYYCAKDGGKLWVYYFDYWGQGTLVTVSS VL: not shown | 1.75 OD450 | binds
EW 9C (antibody, V domains shown, source: HEK293T, transfected; culture supernatant or purified) VH: EVQLVESGGGVVQPGASLRLSCVASGFTFNNFGFHWVRQAPGKGLEWLAVISYEGSKTYYAESLKGRFTISRDTSKNTVYLQMNSLRAEDTAVYYCARATSIFWFGEGRNWFDPWGQGTMVTVSS VL: EIVLTQSPGTVSLSAGERATLSCRASQNVGTDLAWYVQRPGQAPRLLIYDTSNKATGIPARFSGRGSGTDFTLTIDSLEPEDFAVYYCQQRSNWPLTFGGGTKVEIR | 1.22 OD450 | binds
FD 5E (antibody, V domains shown, source: HEK293T, transfected; culture supernatant or purified) VH: EVQLVESGGVVVQPGGSLRLSCAASGFTFDDYAMHWVRQAPGKGLEWVSLISWDGGSTYYADSVKGRFTISRDNSKNSLYLQMNSLRAEDTALYYCAKDSVRFRYYYGMDVWGQGTTVTVSS VL: EIVLTQSPATLSLSPGERATLSCRASQSVSSYLAWYQQKPGQAPRLLIYDASNRATGIPARFSGSGSGTDFTLTISSLEPEDFAVYYCQQRSNWPLTFGPGTKVDIK | 0.34 OD450 | binds
FI 1C (antibody, V domains shown, source: HEK293T, transfected; culture supernatant or purified) VH: EVQLVESGGGLVKPGGSLRLSCAASGFTFSDYYMSWIRQAPGKGLEWVSYISSSGSTIYYADSVKGRFTISRDNAKNSLYLQMNSLRAEDTAVYYCARRSNRFLIAFDIWGQGTMVTVSS VL: QSALTQPASVSGSPGQTITISCTGTSSDVGGYNYVSWYQQHPGKAPKLMIYEVSNRPSGVSNRFSGSKSGNTASLTISGLQAEDEADYYCSSYTSSSTLVVFGGGTKLTVP | 1.88 OD450 | binds
